Measurements from the RNAGym collection of RNA variant scans (doi:10.1073/pnas.2313332121).
Variants at the floor of the assay were thinned out.

B1: TPR 5TU (parent)
chain: GGAUCUUCUCGAUCUAACAAAAAAGACAAAUCUGCCACAAAGCUUGAGAGCAUCUUCGGAUGCAGAGGCGGCAGCCUUCGGUGGCGCGAUAGCGCCAACGUUCUCAACUAUGACACGCAAAACGCGUGCUCCGUUGAAUGGAGUUUAUCAUG

Variants of: B1
Assay: polymerase ribozyme fitness, log enrichment relative to wild type (log ratio); higher = more active; in vitro selection for triplet polymerase activity
In short: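 A heterodimeric triplet polymerase ribozyme had each of its subunits mutagenized by PCR into a library, which was transcribed. One round of in vitro selection, done in triplicate, annealed each library with a biotinylated primer, its partner subunit and triplets, then incubated it frozen at −7 °C before gel excision of extended constructs, streptavidin-bead capture and RT-PCR. Fitness is the logarithm of genotype enrichment relative to wild-type enrichment, based on Illumina sequencing of inputs and outputs and inverse-variance-weighted replicate averages. A base-2 logarithm is used, and genotypes were kept only with ≥10 input reads and ≥1 read per output.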

Variant	polymerase ribozyme fitness (log ratio)
U53A G83A C103U C132U	-3.25
A52C G84A U130C	-0.715
C51U G86C	-2.98
A52C U61A G65A C95A G141U	-2.36
A52G C87U	-1.3
A52C C57G G94A G100U U148A	≤ -4.2
A52G C69U G143A	-2.71
U53G C54A	-2.07
A52G C57A A73U	-0.666
C51U C116G G140C	-4.07
U53A	-0.874
U53G	-1.68
U53C	-0.375
A52G G92C G117U A137G U144A	≤ -4.2
U53A G81A C99U	-2.36
U53A G71C G88A	≤ -4.2
A52C C54U U78A C87U U135A	≤ -4.2
C51U A52G C76A A89G A97C C105U A119C G141U	≤ -4.2
U53A G58A C93U C116U	-0.438
C51U G92A	-3.5
A52C U56A C96A A110G	-3.99
U53A C75U G84C	-2.82
A52C A60C	-2.71
C51G U55G C108A A119U G124A G141A U146A	≤ -4.2

Variant	polymerase ribozyme fitness (log ratio)
U53A G126A	-0.879
U53A G126U	0.134
C51U U53C C63U G74C G86C A89U A113U	≤ -4.2
C51U U61A G84U	-2.8
U53G A97G	-1.44
U53A C103U	-0.534
C51A C95U A97U	-2.64
A52G C108G	≤ -4.2
U53A C131A	-3.17
A52G G86A C93A G143A	≤ -4.2
C51A C96U A97U	-2.73
U53A G94C C105A C118U	≤ -4.2
A52U C76U G86C G126C G152U	≤ -4.2
A52U G74A G80C C95U A147C	≤ -4.2
U53A A64G	-3.41
C51U C96G C132A	-3.26
A52G U53G	-3.21
A52G G74C C87A A113U C125A G140U	≤ -4.2
U53A G128C A137C U148G C149G	≤ -4.2
A52G G92A	-3.13
A52G G92C	-1.46
A52U U55A A115U C118A G126U A150U	≤ -4.2
A52C U53A U148G	≤ -4.2
U53A G59A C85A G88A U151A	≤ -4.2

Variant	polymerase ribozyme fitness (log ratio)
C51A G81A A147G U148G	≤ -4.2
C51G G94A U135A	-3.11
U53A C85U A137G A142C	-3.93
A52G A150C	-3.43
A52C A142G	-1.98
A52C C93G A122G	-3.18
C51U A66C G74A U90G U111G	≤ -4.2
C51G A115C A122U	-3.82
U53A C57G C95G	-4.01
C51U C103A A121C	-1
A52U U53A C57A G58C A89U	0.000593
A52U U53A C57A G81U G83C C103G G126A	≤ -4.2
A52C C118U G143A U144C	-3.94
C51A G94C A107U	≤ -4.2
A52G C85U	-0.204
A52G C85G	-2.16
A52G U53A G84A	-0.8
C51U U53G C93G U127C	≤ -4.2
A52C G70A	-3.92
A52G G83C C93U	-3.66
A52C A66G C72A A97U C99A	≤ -4.2
A52U U101G	-2.22
U53A A73G G86A G92U C95U G143U	≤ -4.2
C51U A115U	-2.12

Variant	polymerase ribozyme fitness (log ratio)
U53A C57A U102G C125A U134A	≤ -4.2
C51U C63U G83C U151C	≤ -4.2
U53C G143U	-2.74
A52G U77G A91C	≤ -4.2
A52G A66C G84C C85A G126U	≤ -4.2
A52C U56C C103G G143C	-4.12
A52C C132U	-2.24
C51G C95U	-2.73
A52C C87U A89C C99U	-4.14
A52C C54U U55G G67C G71U C85U G143C	≤ -4.2
A52C G80C G84U C93U	≤ -4.2
A52C C96A C118G C125A	-2.23
A52C C108A	≤ -4.2
U53A C118U U134C G141A U146C	-0.702
U53A G81C C85G C108U A138G A147G A150U G152U	-3.91
A52U G143U U148A	-4.01
C51A U56A C95A A98U	-1.46
A52G G58C G68C	≤ -4.2
A52G C79G	-3.71
C51U C93G A120C G143C	-4.17
C51U U55A C75A C85U U101A C114U A115G G124A	≤ -4.2
A52C U53G C72U G83A G124A	≤ -4.2
U53A C99U U134A	-3.7
A52G G58U	-0.0148

Variant	polymerase ribozyme fitness (log ratio)
A52U A89U C96A	-2.98
U53A G86C A91U	≤ -4.2
U53A U55A	-2.2
A52C G83C	-2.29
U53A C54U C85U G141U	-1.21
A52C G152U	-3.45
C51A G92U	-1.06
U53A C76A G84C A122U	≤ -4.2
U53A G70C C76A G86U A98U	≤ -4.2
C51U C69G G94C U146C	-1.9
C51U G140U	-2.55
A52C C54U	-1.87
C51U G58C G62U C69U C96G	-3.67
U53C C54U C96A A120U	-0.901
A52G A142U	-0.597
A52G G141U	1
A52C C69A C87U U90C A142U	≤ -4.2
A52C G67A G74U G86U C93U A115G	≤ -4.2
U53A U148C	-3.4
U53A U148A	-3.17
U53A G67C C76G G84A C114U	-4.1
U53A C76G G92A A107C G124U C149A	≤ -4.2
U53A G88U	≤ -4.2
A52U C96U G100A A147C	≤ -4.2

Variant	polymerase ribozyme fitness (log ratio)
A52G U56G G86A C95U A142C	≤ -4.2
U53A C99U	-2.58
U53A G152U	-3.33
U53A U102G G126A	-3.76
C51U C87U C103A C116A	-2.08
A52U U56A G83C G84A C99G A106U U144A	≤ -4.2
A52G G59A G92A	-3.59
U53A G59A C85G C149U	-3.31
A52C C85U A121C U134C A142C	-2.29
U53A G92C U102C	-3.58
C51U U134C	-0.745
A52G C96G G112C	≤ -4.2
C51G G62U G92A C96A	≤ -4.2
U53C C72A U139C A150G	≤ -4.2
U53G A73G C85U G126U	-2.37
A52G G62A C76U U145A	-2.04
A52U U109G	-3.48
A52C C57A C69U C85U	-3.07
U53C G58C C93U C96G G140A	-4.1
C51G G80A G84U G140C	≤ -4.2
U53A C76U	-1.36
C51U C95A U104C C116G	-0.304
U53A U144A	-1.56
U53C C57G U61A G124A G128U	-4.14

Variant	polymerase ribozyme fitness (log ratio)
A52G G71C C95A C131A U139A	≤ -4.2
U53A C87A A89U G141C	≤ -4.2
U53A C54A U82A G141C	-2.84
A52G C57A G84A	-0.599
U53G A64U C69U C76U A98U C108A	≤ -4.2
C51G G83A U134C	-3.62
U53C C72U C132U	-3.52
A52G C76A	-0.0301
A52G G94C U102C C131U	-1.64
A52C G84U U144G	-2.05
C51A C99G G141C	≤ -4.2
A52C G58C G88U	≤ -4.2
C51A C93U	-2.22
C51G U53G C75A C103A	≤ -4.2
A52U G84A	-2.18
U53A A107U U144G	-2.6
C51U G68U C87U U145C	≤ -4.2
C51U C93U U109G C116U	-3.68
A52C	-0.883
A52U	-1.49
A52G	-0.491
U53A G84A	-2.38
U53A G84U	-1.26
